Measurements reported in patent publication US20230242620A1.

Columns and labels:
[1] = target: analytical polyclonal antibody generated in Example 2; assay: SPR Biacore T100, polyclonal immobilized, 500 nM ISV, RU at end of injection
[2] = target: serum sample IHUS#B09032311A1; assay: ECL drug displacement assay, variant as competitor against labelled SEQ ID NO:1
[3] = target: serum sample IHUS#B09032311A3 (pre-existing antibodies against ISV); assay: as above
[4] = target: serum sample IHUS#B09032311A20 (pre-existing antibodies against ISV); assay: as above
[5] = target: affinity purified antibody IHuP#002-001-ABL-08; assay: ECL bridging/competition assay, 10 ug/ml ISV, 400 ng/ml antibody, labelled SEQ ID NO:1

B1: Nb3.10 (VHH)
VHH: EVQLVESGGGLVQAGGSLRLSCAASRSIGRLDRMGWYRHRPGEPRELVATITGGSSINYGDSVKGRFTISIDNSKNTVYLQMNSLRPEDTAVYYCNFNKYVTSRDTWGQGTLVTVSS
For B1, the Binding (RU) [1] was 91 RU.

B2: Nb3.11 (VHH)
VHH: EVQLVESGGGLVQPGGSLRLSCAASRSIGRLDRMGWYRHRPGEPRELVATITGGSSINYGDSVKGRFTISIDNSKNTVYLQMNSLKPEDTAVYYCNFNKYVTSRDTWGQGTLVTVSS
With B2 the Binding (RU) [1] was 88 RU.

B3: Nb3.12 (VHH)
VHH: EVQLVESGGGLVQAGGSLRLSCAASRSIGRLDRMGWYRHRPGEPRELVATITGGSSINYGDSVKGRFTISIDNSKNTVYLQMNSLRPEDTAVYYCNFNKYVTSRDTWGQGTQVTVSS
B3 showed a Binding (RU) [1] of 86 RU.

B4: Nb3.14 (VHH)
VHH: EVQLVESGGGLVQPGGSLRLSCAASRSIGRLDRMGWYRHRPGEPRELVATITGGSSINYGDSVKGRFTISIDNSKNTVYLQMNSLRPEDTAVYYCNFNKYVTSRDTWGQGTLVQVSS
B4 was tested, and the Binding (RU) [1] was 79 RU.

B5: Nb3.15 (VHH)
VHH: EVQLVESGGGSVQPGGSLRLSCAASRSIGRLDRMGWYRHRPGEPRELVATITGGSSINYGDSVKGRFTISIDNSKNTVYLQMNSLRPEDTAVYYCNFNKYVTSRDTWGQGTLVTVSS
In the case of B5, the Binding (RU) [1] is reported as 22 RU.

B6: Nb3.1 (VHH)
VHH: EVQLVESGGGLVQAGGSLRLSCAASRSIGRLDRMGWYRHRTGEPRELVATITGGSSINYGDFVKGRFTISIDNAKNTVYLQMNNLKPEDTAVYYCNFNKYVTSRDTWGQGTQVTVSS
With B6 the Binding (RU) [1] was 2 RU.

B7: Nb3.13 (VHH)
VHH: EVQLVESGGGLVQPGGSLRLSCAASRSIGRLDRMGWYRHRPGEPRELVATITGGSSINYGDSVKGRFTISIDNSKNTVYLQMNSLRPEDTAVYYCNFNKYVTSRDTWGQGTQVTVSS
Work on B7 yielded a Binding (RU) [1] of 90 RU.

B8: Nb4.1 (VHH)
VHH: EVQLVESGGGLVQPGGSLRLSCAASGSVFKINVMAWYRQAPGKGRELVAGIISGGSTSYADSVKGRFTISRDNAKNTLYLQMNSLRPEDTAVYYCAFITTESDYDLGRRYWGQGTLVTVSS
Work on B8 yielded a Binding (RU) [1] of 51 RU.

B9: Nb6.5 (VHH)
VHH: EVQLLESGGGLVQPGGSLRLSCAASGLPFSTKSMGWFRQAPGKGREFVSRISPGGTSRYYGDFVKGRFTISRDNSKNTLYLQMNSLRAEDTAVYYCASGERSTYIGSNYYRTNEYDYWGQGTLVTVSS
B9 gave a Binding (RU) [1] of 66 RU.

B10: Nb6.2 (VHH)
VHH: EVQLVESGGGLVQPGGSLRLSCIASGLPFSTKSMGWFRQAPGKEREFVARISPGGTSRYYGDFVKGRFAISRDNAKNTTWLQMNSLKAEDTAVYYCASGERSTYIGSNYYRTNEYDYWGTGTQVTVSS
Binder B10 has a Binding (RU) [1] of 39 RU.

B11: Example 1C: (A14P, R39Q, K83R, T91Y, Q108L)-QA (VHH)
VHH: EVQLVESGGGLVQPGGSLRLSCAASGRTFNNYAMGWFRQAPGKEREFVAAITRSGVRSGVSAIYGDSVKDRFTISRDNAKNTLYLQMNSLRPEDTAVYYCAASAIGSGALRRFEYDYSGQGTLVTVSS
Work on B11 yielded a % reduction [2] of 3%, an ECLU confirmatory assay [2] of 60 ECLU and a % reduction [3] of 18%. The ECLU confirmatory assay [3] was 1810 ECLU, the % reduction [4] was 18% and the ECLU confirmatory assay [4] was 15100 ECLU. The % reduction [5] was 58.6% and the ECLU confirmatory assay [5] was 1210 ECLU.

B12: Example 1C: (A14P) (VHH)
VHH: EVQLVESGGGLVQPGGSLRLSCAASGRTFNNYAMGWFRRAPGKEREFVAAITRSGVRSGVSAIYGDSVKDRFTISRDNAKNTLYLQMNSLKPEDTAVYTCAASAIGSGALRRFEYDYSGQGTQVTVSS
With B12 the % reduction [2] was 10%, the ECLU confirmatory assay [2] was 56 ECLU and the % reduction [3] was 91%. The ECLU confirmatory assay [3] was 205 ECLU, the % reduction [4] was 96% and the ECLU confirmatory assay [4] was 668 ECLU. The % reduction [5] was 90.8% and the ECLU confirmatory assay [5] was 268 ECLU.

B13: Example 1C: wildtype (VHH)
VHH: EVQLVESGGGLVQAGGSLRLSCAASGRTFNNYAMGWFRRAPGKEREFVAAITRSGVRSGVSAIYGDSVKDRFTISRDNAKNTLYLQMNSLKPEDTAVYTCAASAIGSGALRRFEYDYSGQGTQVTVSS
In the case of B13, the % reduction [2] is reported as 4%, the ECLU confirmatory assay [2] is reported as 60 ECLU and the % reduction [3] is reported as 20%. The ECLU confirmatory assay [3] was 1780 ECLU, the % reduction [4] was 53% and the ECLU confirmatory assay [4] was 8680 ECLU. The % reduction [5] was 7.3% and the ECLU confirmatory assay [5] was 2710 ECLU.

B14: Example 1C: (A14P, R39Q, K83R, T91Y, Q108L)-3A (VHH)
VHH: EVQLVESGGGLVQPGGSLRLSCAASGRTFNNYAMGWFRQAPGKEREFVAAITRSGVRSGVSAIYGDSVKDRFTISRDNAKNTLYLQMNSLRPEDTAVYYCAASAIGSGALRRFEYDYSGQGTLVTVSS
Work on B14 yielded a % reduction [2] of 0%, an ECLU confirmatory assay [2] of 62 ECLU and a % reduction [3] of 13%. For the same binder, the ECLU confirmatory assay [3] was 1930 ECLU, the % reduction [4] was 18% and the ECLU confirmatory assay [4] was 15200 ECLU. It also gave a % reduction [5] of -13.1% and an ECLU confirmatory assay [5] of 3300 ECLU.

B15: Example 1C: (A14P, K83R, Q108L) (VHH)
VHH: EVQLVESGGGLVQPGGSLRLSCAASGRTFNNYAMGWFRRAPGKEREFVAAITRSGVRSGVSAIYGDSVKDRFTISRDNAKNTLYLQMNSLRPEDTAVYTCAASAIGSGALRRFEYDYSGQGTLVTVSS
In the case of B15, the % reduction [2] is reported as 8%, the ECLU confirmatory assay [2] is reported as 57 ECLU and the % reduction [3] is reported as 93%. The ECLU confirmatory assay [3] was 156 ECLU, the % reduction [4] was 97% and the ECLU confirmatory assay [4] was 628 ECLU. The % reduction [5] was 89.1% and the ECLU confirmatory assay [5] was 319 ECLU.

B16: Example 1c: (A14P, R39Q, K83R,T91Y, Q108L) (VHH)
VHH: EVQLVESGGGLVQPGGSLRLSCAASGRTFNNYAMGWFRQAPGKEREFVAAITRSGVRSGVSAIYGDSVKDRFTISRDNAKNTLYLQMNSLRPEDTAVYYCAASAIGSGALRRFEYDYSGQGTLVTVSS
For B16, the % reduction [2] was 6%, the ECLU confirmatory assay [2] was 58 ECLU and the % reduction [3] was 90%. The ECLU confirmatory assay [3] was 228 ECLU, the % reduction [4] was 97% and the ECLU confirmatory assay [4] was 570 ECLU. The % reduction [5] was 91.4% and the ECLU confirmatory assay [5] was 251 ECLU.

B17: Example 1C: (K83R) (VHH)
VHH: EVQLVESGGGLVQAGGSLRLSCAASGRTFNNYAMGWFRRAPGKEREFVAAITRSGVRSGVSAIYGDSVKDRFTISRDNAKNTLYLQMNSLRPEDTAVYTCAASAIGSGALRRFEYDYSGQGTQVTVSS
In the case of B17, the % reduction [2] is reported as 1%, the ECLU confirmatory assay [2] is reported as 62 ECLU and the % reduction [3] is reported as 37%. It also gave an ECLU confirmatory assay [3] of 1400 ECLU, a % reduction [4] of 63% and an ECLU confirmatory assay [4] of 6910 ECLU. It also gave a % reduction [5] of 15.7% and an ECLU confirmatory assay [5] of 2460 ECLU.

B18: Example 1C: (Q108L) (VHH)
VHH: EVQLVESGGGLVQAGGSLRLSCAASGRTFNNYAMGWFRRAPGKEREFVAAITRSGVRSGVSAIYGDSVKDRFTISRDNAKNTLYLQMNSLKPEDTAVYTCAASAIGSGALRRFEYDYSGQGTLVTVSS
B18 was tested, and the % reduction [2] was 5%, the ECLU confirmatory assay [2] was 59 ECLU and the % reduction [3] was 31%. It also gave an ECLU confirmatory assay [3] of 1530 ECLU, a % reduction [4] of 62% and an ECLU confirmatory assay [4] of 6990 ECLU. The % reduction [5] was 13.2% and the ECLU confirmatory assay [5] was 2530 ECLU.
